# B1: mouse ferroportin (Fpn): N437D (protein)
# parent chain: MTKARDQTHQEGCCGSLANYLTSAKFLLYLGHSLSTWGDRMWHFAVSVFLVELYGNSLLLTAVYGLVVAGSVLVLGAIIGDWVDKNARLKVAQTSLVVQNVSVILCGIILMMVFLHKNELLTMYHGWVLTVCYILIITIANIANLASTATAITIQRDWIVVVAGENRSRLADMNATIRRIDQLTNILAPMAVGQIMTFGSPVIGCGFISGWNLVSMCVEYFLLWKVYQKTPALAVKAALKVEESELKQLTSPKDTEPKPLEGTHLMGEKDSNIRELECEQEPTCASQMAEPFRTFRDGWVSYYNQPVFLAGMGLAFLYMTVLGFDCITTGYAYTQGLSGSILSILMGASAITGIMGTVAFTWLRRKCGLVRTGLFSGLAQLSCLILCVISVFMPGSPLDLSVSPFEDIRSRFVNVEPVSPTTKIPETVFTTEMHMSNMSNVHEMSTKPIPIVSVSLLFAGVIAARIGLWSFDLTVTQLLQENVIESERGIINGVQNSMNYLLDLLHFIMVILAPNPEAFGLLVLISVSFVAMGHLMYFRFAQKTLGNQIFVCGPDEKEVTDENQPNTSVV
# Assay: 55Fe efflux after 10 µM hepcidin pretreatment, oocytes
# Conditions: glycan lost; control: wild-type mouse Fpn
protein,measurement,value
B1,other: hepcidin inhibition of transport,no change

# — publication PMC7780100
